# From paper PMC9296380, “Characterisation of recombinant GH 3 β-glucosidase from β-glucan producing Levilactobacillus brevis TMW 1.2112” (Antonie Van Leeuwenhoek, 2022)
# B1: BglB (Levilactobacillus brevis) (protein)
# chain: MDIERTLAELTLPEKAALVSGKNNWYTAAVDRLDLPALMMTDGPSGLRKQTNSGTTNINDAIQAITYPAAALSASTWNESLMHQLGEHLGIEARAEQVSLLLGPGVNMKRSPLGGRNFEYLAEDPLVAGKLGSAYVQGVQSQHVGVAVKHFAANNRENQRFTASSDMSERTLRELYLRTFEIIVKSAYPATIMTSYNKINGVLNSQNERLLRRILRDEWGFHGAVMSDWGAVANTVQALKAGLDLEMPGKGQASVNDIIRAVHTGELDEGTLNKAVRHLLHVVDDWLPADHAQPYDHAAHHQFARKLADDGIILLKNHEDELPLDPQTTGKVVVIGELAENPRFQGSGSSHVNPTKLVSPLDALADSGLKADYYPGYRLDQSETNGDLAEAALTAAKTADHVIIFAGYPETAESEGFDKASLMLPENQSDLIGSLAKANVHTTVVLQNGSAVEMPWIHSVAAVVETYLAGEAVGEATWDIITGAVNPSGHLTETFPRRLTDTPMAPTFGQDPHHEYYTEGIFMGYRYYDTHEMHVLFPFGHGLSYTTFEYTNLKLTQNERGATVTFDVTNTGARSGQAVPQLYIANHASHVPMPTKELRAFTKVAIAPGETETVTLALDRRDFSWWCEPKARWQADSGDYEVMIGESSRDIRLQVKLTMDFKNSPAPITTETYMAAIVKNPQLRDLFKQVVLAPEYAGPENFLATTDDQGSLQIFQDRMFMNMPLRAVVALGGPQALITDFITRANTLLRQ
# notes: no signal peptide predicted; C-terminal His tag (stop codon removed, Myc region excised) from pBAD/Myc-His A; expressed in E. coli BL21, Ni-NTA purified; primer-encoded N-terminus MDIERTLAEL
# Substrate: O=[N+]([O-])c1ccc(O[C@@H]2O[C@H](CO)[C@@H](O)[C@H](O)[C@H]2O)cc1
# Assay: purified protein
# Type: biochemical, Levilactobacillus brevis
# Conditions: 50 mM PBS buffer pH 7, 37 °C, 0.01-20 mM substrate
protein,measurement,value
B1,Km,220 µM
same,kcat,59.58 s⁻¹
